The record followed here is publication PMC10548395.

Usually pKd stands for the Kd on a negative log10 scale, so that one unit is a factor of ten. A low value points to a high Kd.

pKd: −log10 of the molar value.

The target of the assay is IQ∼Sec7PH fusion protein of IQSEC3 (not stated (human or rat cDNA cloned)) (UniProt Q9UPP2). Kind of assay: ITC. (Isothermal titration calorimetry measures the heat released or taken up as one component is titrated into another.)
UniProt Q9UPP2, sequence (Q9UPP2 whole entry, looked up, the tested form may be a part): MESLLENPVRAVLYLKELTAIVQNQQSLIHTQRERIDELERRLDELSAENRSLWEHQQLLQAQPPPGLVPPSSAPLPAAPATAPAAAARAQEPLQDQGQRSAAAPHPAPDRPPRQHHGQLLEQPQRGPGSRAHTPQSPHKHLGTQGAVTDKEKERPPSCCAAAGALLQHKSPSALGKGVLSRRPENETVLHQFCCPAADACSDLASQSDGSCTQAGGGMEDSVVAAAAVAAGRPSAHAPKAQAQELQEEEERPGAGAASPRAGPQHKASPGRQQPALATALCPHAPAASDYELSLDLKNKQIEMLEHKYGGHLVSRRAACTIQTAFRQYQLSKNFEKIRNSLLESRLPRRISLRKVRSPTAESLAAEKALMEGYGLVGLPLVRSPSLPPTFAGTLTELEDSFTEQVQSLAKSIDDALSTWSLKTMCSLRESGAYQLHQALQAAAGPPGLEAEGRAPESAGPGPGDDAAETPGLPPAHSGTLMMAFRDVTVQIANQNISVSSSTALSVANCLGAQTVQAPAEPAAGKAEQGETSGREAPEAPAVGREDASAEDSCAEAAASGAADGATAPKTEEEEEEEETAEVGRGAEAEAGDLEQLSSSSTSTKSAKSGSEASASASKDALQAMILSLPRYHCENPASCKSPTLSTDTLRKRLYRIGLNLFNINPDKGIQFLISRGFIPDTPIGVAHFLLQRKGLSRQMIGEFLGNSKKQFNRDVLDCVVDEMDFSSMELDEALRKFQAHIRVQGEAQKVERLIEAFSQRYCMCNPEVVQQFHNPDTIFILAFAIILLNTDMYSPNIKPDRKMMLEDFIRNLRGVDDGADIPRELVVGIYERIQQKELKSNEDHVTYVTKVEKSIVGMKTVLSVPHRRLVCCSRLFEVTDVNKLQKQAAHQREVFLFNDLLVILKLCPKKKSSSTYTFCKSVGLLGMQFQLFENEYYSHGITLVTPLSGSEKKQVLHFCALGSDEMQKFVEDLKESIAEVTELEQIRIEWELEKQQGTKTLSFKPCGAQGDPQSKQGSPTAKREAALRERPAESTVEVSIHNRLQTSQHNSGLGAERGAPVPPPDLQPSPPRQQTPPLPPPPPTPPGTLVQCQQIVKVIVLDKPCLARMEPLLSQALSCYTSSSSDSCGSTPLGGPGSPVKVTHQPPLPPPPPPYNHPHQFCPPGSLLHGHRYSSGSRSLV

Substance “calmodulin (CaM) (from UniProt P0DP25 2-149) (natural protein)” gave a pKd of 9.00.
